Assay results from PMC7317968, “A GM1b/asialo‐GM1 oligosaccharide‐binding R‐type lectin from purplish bifurcate mussels Mytilisepta virgata and its effect on MAP kinases” (The Febs Journal, 2019).

Target: the molecule itself
Test: AUC; sedimentation velocity, sample about 1.0 mg/mL, 50 mM potassium phosphate pH 7.4, 0.1 M NaCl, 293 K, c(s) analysis in SEDFIT converted to c(M); native mass 30 kDa

B1: Mytilisepta virgata R-type lectin SeviL (natural protein, UniProt A0A646QV53 1-129, looked up)
chain: MSSVTIGKCYIQNRENGGRAFYNLGRKDLGIFTGKMYDDQIWSFQKSDTPGYYTIGRESKFLQYNGEQVIMSDIEQDTTLWSLEEVPEDKGFYRLLNKVHKAYLDYNGGDLVANKHQTESEKWILFKAY
notes: SeviL (variant SeviL-1), R-type (ricin B-type) lectin of Mytilisepta virgata, 129 amino acids, 15 kDa; Native protein isolated from tissue; also called SeviL-1; mytvir1; source: purified from Mytilisepta virgata mantles and gills (lactosyl-agarose column, eluted with 50 mM lactose)
- stoichiometry N: 2
